Reference: article PMC6486907

Columns and labels:
[1] = biological target: Sau-TBD (large fragment of Staphylococcus aureus Pol I with the thioredoxin-binding domain of bacteriophage T7 DNA polymerase inserted) (Staphylococcus aureus | bacteriophage T7)
[2] = biological target: Sau-TBD (large fragment of Staphylococcus aureus Pol I with the thioredoxin-binding domain of bacteriophage T7 DNA polymerase inserted) (Staphylococcus aureus | bacteriophage T7); remark: listed apart in the source

With “thioredoxin from E. coli (TrxA) (from UniProt P0AA25 2-109) (natural protein)” as the substance, how does the DNA polymerase activity of Sau-TBD on primed M13mp18 DNA with 1.5 uM thioredoxin (1316 units/mg protein without thioredoxin) (units/mg protein) [1] read?
Its DNA polymerase activity of Sau-TBD on primed M13mp18 DNA with 1.5 uM thioredoxin (1316 units/mg protein without thioredoxin) (units/mg protein) is 2860.

What about the average primer extension length of Sau-TBD with thioredoxin, as told in the text (differs from Table 3) [2] of the same substance?
Its average primer extension length of Sau-TBD with thioredoxin, as told in the text (differs from Table 3) is 74.2 nt.

What about the microscopic processivity (PI) of Sau-TBD with thioredoxin, as told in the text (differs from Table 3) [2] of the same substance?
The microscopic processivity (PI) of Sau-TBD with thioredoxin, as told in the text (differs from Table 3) was 0.986.
